# From US20240269235A1 (Gilead, published 2024)
# T1: human IL-2Rα on Treg cells (CD3+, CD4+, CD25hi, FoxP3+) of human PBMC (human, UniProt P01589 22-272)
# T1 sequence (looked up): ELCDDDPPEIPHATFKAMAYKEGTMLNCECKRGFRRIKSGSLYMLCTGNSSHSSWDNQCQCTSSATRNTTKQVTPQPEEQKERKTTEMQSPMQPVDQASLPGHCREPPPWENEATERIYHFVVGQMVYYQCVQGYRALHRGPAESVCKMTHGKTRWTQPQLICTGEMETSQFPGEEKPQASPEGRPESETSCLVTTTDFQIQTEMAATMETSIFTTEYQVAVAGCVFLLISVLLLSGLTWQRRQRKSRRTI
# T2: IL-2Rβ (recombinant IL-2 receptor β, R&D Systems Cat #:224-2B-025/CF), biotinylated (UniProt P14784 27-239, limits assumed, biotinylated using sulfo-NHS-LC-LC-Biotin)
# T2 construct: Bought reagent; also called IL-2RB; CD122
# T2 sequence (looked up): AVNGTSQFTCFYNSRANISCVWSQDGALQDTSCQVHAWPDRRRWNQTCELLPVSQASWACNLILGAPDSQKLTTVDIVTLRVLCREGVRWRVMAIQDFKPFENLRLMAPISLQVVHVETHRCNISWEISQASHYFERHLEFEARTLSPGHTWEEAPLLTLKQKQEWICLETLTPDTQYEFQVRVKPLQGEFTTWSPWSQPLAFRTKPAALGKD
# T3: IL-2Rα (recombinant IL-2 receptor α, R&D Systems Cat #: 223-2A/CF), biotinylated (human, UniProt P01589 22-213, limits assumed, biotinylated using sulfo-NHS-LC-LC-Biotin)
# T3 construct: Bought reagent; also used here as the IL-2Rα partner of the in-silico analysis of PDB 2B5I (another construct); also called IL-2RA; CD25
# T3 sequence (looked up): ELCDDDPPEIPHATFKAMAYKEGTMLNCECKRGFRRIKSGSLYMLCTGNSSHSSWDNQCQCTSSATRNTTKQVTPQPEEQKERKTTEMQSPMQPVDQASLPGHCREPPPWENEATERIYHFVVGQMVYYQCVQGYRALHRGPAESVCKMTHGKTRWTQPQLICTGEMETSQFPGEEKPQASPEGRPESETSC
# T4: trimeric murine IL-2 receptor (IL-2Rα, IL-2Rβ, and IL-2Rγ) on CTLL-2 cells (murine, UniProt P01590 22-268; P16297 27-539; P34902 23-369)
# T4 sequence (looked up) 1: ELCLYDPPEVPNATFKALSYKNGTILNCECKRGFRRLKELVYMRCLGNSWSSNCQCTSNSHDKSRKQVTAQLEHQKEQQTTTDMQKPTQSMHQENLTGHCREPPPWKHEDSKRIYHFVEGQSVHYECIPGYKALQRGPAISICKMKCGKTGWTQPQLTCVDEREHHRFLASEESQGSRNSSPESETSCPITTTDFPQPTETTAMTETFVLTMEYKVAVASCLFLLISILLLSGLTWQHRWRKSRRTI
# T4 sequence (looked up) 2: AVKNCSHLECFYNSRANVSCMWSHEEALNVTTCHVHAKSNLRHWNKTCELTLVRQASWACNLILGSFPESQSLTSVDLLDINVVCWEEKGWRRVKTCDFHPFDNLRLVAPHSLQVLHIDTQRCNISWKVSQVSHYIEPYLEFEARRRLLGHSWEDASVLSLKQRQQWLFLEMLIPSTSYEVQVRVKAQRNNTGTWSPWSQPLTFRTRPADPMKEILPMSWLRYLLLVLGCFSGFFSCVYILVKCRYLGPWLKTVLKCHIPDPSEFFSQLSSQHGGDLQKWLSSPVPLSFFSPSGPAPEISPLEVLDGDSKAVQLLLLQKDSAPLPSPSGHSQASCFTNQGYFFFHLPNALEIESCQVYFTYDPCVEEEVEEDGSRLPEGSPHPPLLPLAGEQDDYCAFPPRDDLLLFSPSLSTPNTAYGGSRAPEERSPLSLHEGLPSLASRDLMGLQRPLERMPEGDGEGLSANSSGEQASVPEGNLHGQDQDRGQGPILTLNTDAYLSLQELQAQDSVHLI
# T4 sequence (looked up) 3: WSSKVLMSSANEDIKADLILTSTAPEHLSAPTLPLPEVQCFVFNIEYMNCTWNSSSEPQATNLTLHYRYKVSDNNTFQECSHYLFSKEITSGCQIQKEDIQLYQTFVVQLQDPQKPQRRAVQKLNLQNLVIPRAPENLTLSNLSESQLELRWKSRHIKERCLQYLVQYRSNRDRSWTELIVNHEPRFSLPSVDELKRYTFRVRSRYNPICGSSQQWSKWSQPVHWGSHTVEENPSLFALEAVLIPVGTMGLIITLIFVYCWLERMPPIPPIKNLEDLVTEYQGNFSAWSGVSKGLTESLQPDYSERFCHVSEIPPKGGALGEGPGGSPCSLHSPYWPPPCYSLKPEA
# Tests used:
# [1] = target: T1, human IL-2Rα on Treg cells (CD3+, CD4+, …); test: cell-based or functional assay
# [2] = target: T2, IL-2Rβ (recombinant IL-2 receptor β, …); test: SPR (Biacore), C1 or CM5 chip, biotinylated receptor on neutravidin
# From the text: (§1) Data for binding of Fc-IL-2 variant fusion proteins to IL-2Rα, IL-2Rβ and IL-2Rβγ heterodimer were collected on a Biacore platform using either C1 or CM5 chips. Neutravidin was immobilized using standard amine coupling methods and used to capture biotinylated receptors. Commercially sourced IL-2Rα (R&D Systems Cat #: 223-2A/CF) and IL-2Rβ receptors (R&D Systems Cat #:224-2B-025/CF) were biotinylated using sulfo-NHS-LC-LC-Biotin, desalted, and then captured on the neutravidin surfaces. […] Distinct purification tags were appended to the C-terminus of each chain. A FLAG epitope tag ([…]; SEQ ID NO: 257) was added at the C-terminus of IL-2Rβ subunit, followed by C-terminal Hiss tag ([…]; SEQ ID NO: 258). An AviTag™ ([…]; SEQ ID NO: 259) motif on the IL-2Rγ subunit allowed for site-specific biotinylation of the heterodimer.
# (§2) Fc IL 2 fusion protein variants, Fc protein, and Proleukin were injected at various concentrations over these surfaces. Kinetic data obtained from these injections was used to extract kₒₙ and koff to calculate KD (KD=koff/kₒₙ). Experiments were run at 25° C. in HBS-EP+ running buffer (10 mM HEPES, 150 mM NaCl, 3 mM EDTA, 0.05% Tween20, pH 7.4 with 0.1 mg/ml BSA). Data shown in Table 5 for Fc IL-2 fusion protein variants binding to the indicated IL-2R surfaces were derived from the global fitting of data obtained from 2-5 independent surfaces.
# [3] = target: T5, IL-2Rβγ heterodimer, custom biotinylated Fc fusion protein (human IL-2Rβ 27-240-Fc-FLAG / human IL-2Rγ … (human, site-specific biotinylation at the AviTag)); test: as above
# T5 construct: Extracellular regions fused to IgG1 knob-in-hole Fc subunits with tags; also called IL-2 receptor βγ heterodimer; Fc-IL-2Rβγ
# T5 sequence (chain, as listed by the source limits assumed): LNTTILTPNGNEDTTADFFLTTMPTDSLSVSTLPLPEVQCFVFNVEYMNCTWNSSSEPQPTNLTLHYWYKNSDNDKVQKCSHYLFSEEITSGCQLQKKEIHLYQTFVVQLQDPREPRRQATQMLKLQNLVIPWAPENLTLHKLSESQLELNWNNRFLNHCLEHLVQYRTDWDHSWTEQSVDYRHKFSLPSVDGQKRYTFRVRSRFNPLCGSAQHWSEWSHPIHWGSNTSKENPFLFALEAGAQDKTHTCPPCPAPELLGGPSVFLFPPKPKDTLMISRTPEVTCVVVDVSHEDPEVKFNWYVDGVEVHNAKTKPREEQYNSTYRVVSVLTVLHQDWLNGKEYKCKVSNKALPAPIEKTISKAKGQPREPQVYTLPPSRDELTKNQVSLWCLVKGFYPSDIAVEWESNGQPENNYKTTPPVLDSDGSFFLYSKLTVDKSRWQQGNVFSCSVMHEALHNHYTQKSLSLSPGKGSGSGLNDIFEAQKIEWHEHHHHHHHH
# From the text: as §1, §2
# [4] = target: T3, IL-2Rα (recombinant IL-2 receptor α, …); test: as above
# From the text: as §1, §2
# [5] = target: T4, trimeric murine IL-2 receptor (IL-2Rα, …); test: cell-based or functional assay
binder,measurement,setting,value
"Fc-IL-2 heterodimer 117.46 (hIL-2v_Δ1-5_C125S), native IL-2Rα binding interface (Fc fusion, hIgG4 knob-in-hole Fc heterodimer) chain 1: ESKYGPPCPPCPAPEAAGGPSVFLFPPKPKDTLMISRTPEVTCVVVDVSQEDPEVQFNWYVDGVEVHNAKTKPREEQFNSTYRVVSVLTVLHQDWLNGKEYKCKVSNKGLPSSIEKTISKAKGQPREPQVYTLPPSQEEMTKNQVSLWCLVKGFYPSDIAVEWESNGQPENNYKTTPPVLDSDGSFFLYSRLTVDKSRWQEGNVFSCSVMHEALHNHYTQKSLSLSLGGGGGSGGGGSGGGGSGGGGSSTKKTQLQLEHLLLDLQMILNGINNYKNPKLTRMLTFKFYMPKKATELKHLQCLEEELKPLEEVLNLAQSKNFHLRPRDLISNINVIVLELKGSETTFMCEYADETATIVEFLNRWITFSQSIISTLT chain 2: ESKYGPPCPPCPAPEAAGGPSVFLFPPKPKDTLMISRTPEVTCVVVDVSQEDPEVQFNWYVDGVEVHNAKTKPREEQFNSTYRVVSVLTVLHQDWLNGKEYKCKVSNKGLPSSIEKTISKAKGQPREPQVYTLPPSQEEMTKNQVSLSCAVKGFYPSDIAVEWESNGQPENNYKTTPPVLDSDGSFFLVSRLTVDKSRWQEGNVFSCSVMHEALHNRFTQKSLSLSLGK","Treg EC50, STAT5 activation (PBMC STAT5 assay)",[1],< 0.001 nM
same,Kd,[2],7000 nM
same,Kd,[3],0.142 nM
same,Kd,[4],15 nM
same,"STAT5 activation of CTLL-2 cells, EC50",[5],0.003 nM
